Data on five molecules can be found in patent publication US20240182596A1 (TUBULIS, published 2024).

Assay [1] addresses T1, purified recombinant human Napi2b antigen consisting of Napi2b-extracellular-loop2 expressed as … (human, UniProt O95436 234-362, limits assumed).
T1 construct: Expressed in Expi-HEK293 cells; also called immobilized human NaPi2B; not shown: Fc part; 6-His tag
T1 sequence: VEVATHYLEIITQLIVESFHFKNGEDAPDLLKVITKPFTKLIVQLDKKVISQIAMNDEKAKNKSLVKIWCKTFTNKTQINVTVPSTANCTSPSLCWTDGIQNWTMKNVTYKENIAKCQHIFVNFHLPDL
Description: ELISA, coated Napi2b-extracellular-loop2-Fc-6-His, apparent KD from one-site fit.

The target in assay [2] is T2, human NaPi2b on NaPi2b-positive cell lines OVCAR-3 and HCC-78 (human, UniProt O95436 1-690).
T2 construct: Endogenous protein
T2 sequence: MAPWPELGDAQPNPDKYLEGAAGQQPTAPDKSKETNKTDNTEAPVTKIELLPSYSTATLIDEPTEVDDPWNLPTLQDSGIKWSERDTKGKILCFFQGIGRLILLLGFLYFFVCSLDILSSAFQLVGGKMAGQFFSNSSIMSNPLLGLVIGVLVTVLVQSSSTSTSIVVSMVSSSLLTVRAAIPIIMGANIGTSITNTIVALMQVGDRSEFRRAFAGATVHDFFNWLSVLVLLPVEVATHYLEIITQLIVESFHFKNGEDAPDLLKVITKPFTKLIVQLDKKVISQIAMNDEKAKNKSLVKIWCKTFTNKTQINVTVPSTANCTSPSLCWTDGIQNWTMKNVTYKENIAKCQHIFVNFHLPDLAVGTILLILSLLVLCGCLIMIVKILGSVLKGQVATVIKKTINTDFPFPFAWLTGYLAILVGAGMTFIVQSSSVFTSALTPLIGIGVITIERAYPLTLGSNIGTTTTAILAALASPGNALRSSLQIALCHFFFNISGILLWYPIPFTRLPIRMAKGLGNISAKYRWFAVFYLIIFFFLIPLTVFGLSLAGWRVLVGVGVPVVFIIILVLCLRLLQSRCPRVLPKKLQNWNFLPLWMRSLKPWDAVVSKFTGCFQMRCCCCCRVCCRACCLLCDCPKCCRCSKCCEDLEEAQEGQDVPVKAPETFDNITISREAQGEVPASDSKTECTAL
The assay is described as follows: flow cytometry on OVCAR-3 cells; table column Binding KD (nmol/L), FACS (OVCAR-3).

The target of assay [3] is T1, purified recombinant human Napi2b …. The assay is described as follows: ELISA on the isolated immobilized protein; table column Binding KD (nmol/L), ELISA.
Assay [4] concerns the target T3, human Napi2b-mCherry on HEK293 cells (human, UniProt O95436 1-690).
T3 construct: also called Napi2b (SLC34A2); HEK293 cells overexpressing Napi2b
T3 sequence: T2 sequence
The assay is described as follows: flow cytometry on HEK293 cells stably expressing human full-length NaPi2b-mCherry, Alexa-dye anti-human IgG H+L secondary antibody, MFI ratio, one-site specific binding fit; the Kd table prints no unit, the concentration axis is in nM.
Description: (§1) HEK293 cells stably overexpressing human and rat Napi2b were generated by stable integration of a human or rat full-length Napi2b-mCherry-(GGGS)3x-mCherry expression construct under control of a human EF1 promoter and a Puromycin-selection cassette under a CMV promoter into the parental HEK293 cell line. In brief, cells were transfected with the linearized plasmids using Lipfectamine 2000 (Thermo Fisher) and selected with Puromycin antibiotic. Cells were then single cell cloned in 96-well plates via serial dilution under continuous antibiotic selection. Clones were screened for target expression via flow cytometry and mCherry fluorescence via flow cytometry and fluorescence microscopy. Target- and mCherry-positive clones were expanded and used for further experiments. […] Binding of antibodies was investigated on mCherry-positive cells. Mean fluorescence intensity (MFI) ratios were normalized to the secondary antibody control. The assay was performed in duplicates and data points were analyzed by a non-linear regression using a one-site specific binding model to derive KD values using Prism 9 software.

Assay [5] concerns the target T4, HEK293 cyno-NaPi2B-mCherry (Macaca fascicularis, UniProt A0A2K5UHY1).
T4 construct: full-length mCherry fusion stably expressed on HEK293 cells; also called cynomolgus full-length NaPi2b-mCherry on HEK293 cells
T4 sequence (target on cells): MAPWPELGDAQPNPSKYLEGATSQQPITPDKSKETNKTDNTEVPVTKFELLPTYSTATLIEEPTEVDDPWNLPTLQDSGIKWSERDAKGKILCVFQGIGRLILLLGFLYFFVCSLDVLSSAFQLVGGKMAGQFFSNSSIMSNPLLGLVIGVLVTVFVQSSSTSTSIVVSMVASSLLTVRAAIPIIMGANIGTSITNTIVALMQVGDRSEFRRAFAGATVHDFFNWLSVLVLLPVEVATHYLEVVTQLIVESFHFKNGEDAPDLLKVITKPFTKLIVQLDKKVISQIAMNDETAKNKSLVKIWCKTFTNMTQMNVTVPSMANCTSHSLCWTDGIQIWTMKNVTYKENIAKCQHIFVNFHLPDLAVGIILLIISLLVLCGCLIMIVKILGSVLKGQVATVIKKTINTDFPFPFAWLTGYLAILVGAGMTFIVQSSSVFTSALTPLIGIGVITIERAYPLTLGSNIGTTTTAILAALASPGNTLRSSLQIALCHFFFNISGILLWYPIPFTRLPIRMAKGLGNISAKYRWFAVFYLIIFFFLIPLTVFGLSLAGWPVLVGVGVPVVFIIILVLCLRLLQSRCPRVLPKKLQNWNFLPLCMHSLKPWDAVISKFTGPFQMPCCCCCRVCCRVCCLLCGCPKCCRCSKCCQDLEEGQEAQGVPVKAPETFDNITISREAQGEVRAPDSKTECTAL
Description: flow cytometry on HEK293 cells stably expressing cynomolgus full-length NaPi2b-mCherry, Alexa-dye anti-human IgG H+L secondary antibody, MFI ratio, one-site specific binding fit; the Kd table prints no unit, the concentration axis is in nM.
Description: as §1

The target in assay [6] is T2, human NaPi2b on NaPi2b-positive cell …. The assay is described as follows: flow cytometry on HCC-78 cells, one-site fit.
Description: (§2) To determine concentration-dependent binding, NaPi2b-positive OVCAR-3 and HCC-78 were incubated with antibodies in concentrations ranging from 0.00075 to 30 μg/ml, stained with an Alexa-dye-labeled anti-human IgG H+L secondary antibody (Thermo Fisher Scientific), and analyzed by flow cytometry. Mean fluorescence intensity (MFI) ratios were normalized to the non-specific binding control. The assay was performed in duplicates and data points were analyzed by a non-linear regression using a one-site specific binding model using Prism 9 software.
The target is the same in assay [7]. Description: flow cytometry on OVCAR-3 cells, one-site fit.
Description: as §2
The target is the same in assay [8]. The assay is described as follows: flow cytometry on NaPi2b-positive HCC-78 cells, Alexa-dye-labeled anti-human IgG H+L secondary antibody, MFI ratio normalized to the non-specific binding control.
Description: as §2
Assay [9] shares this target. The assay is described as follows: flow cytometry on NaPi2b-positive OVCAR-3 cells, Alexa-dye-labeled anti-human IgG H+L secondary antibody, MFI ratio normalized to the non-specific binding control.
Description: as §2

Numbering of substitutions follows the chain as printed.

B1: AV-15 antibody (antibody, human IgG1, kappa, L234A L235A, V domains shown)
VH: EVQLVQSGAEVVKPGASVKMSCKASGYTFTGYNIHWVKQAPGQGLEWIGAIYPGNGDTSYKQKFRGRATLTADTSTSTVYMELSSLRSEDSAVYYCARGETARATFAYWGQGTLVTVSS
VL: DIQMTQSPSSLSASVGDRVTITCSASQDIGKFLNWYQQKPGKTVKVLIYYSSSLYSGVPSRFSGSGSGTDYTLTISSLQPEDFATYYCQQYSKVPLTFGQGTKLELKR
Turning to B1, the Kd in assay [1] stood at 0.0158 µg/mL; in assay [2], 6.6 nM; in assay [3], 0.105 nM; in assay [4], 3.5 nM; in assay [5], 2.7 nM.

B2: Upifitamab (antibody, human IgG1, kappa, L234A L235A, V domains shown)
VH: B1 VH
VL: B1 VL with K31N, S51T, V94L
notes: Bought from MedChemExpress
For the molecule B2, the Kd in assay [6] came out at 1.27 µg/mL; in [7], 1.11 µg/mL. Further, the “EC50 (read off the curve)” value in assay [8] and in [9] was around 1 µg/mL each time.

B3: AV-29 antibody (antibody, human IgG1, kappa, L234A L235A, V domains shown)
VH: B1 VH with H35L, D57G, L70I, T101I
VL: B1 VL with K31N, S51A, V94L
As for B3, the Kd in assay [1] was found to be 0.0124 µg/mL; in assay [2], 3.5 nM; in assay [3], 0.082 nM; in [4], 2.66 nM; in assay [5] it was 1.91 nM.

B4: AV-18 antibody (antibody, human IgG1, kappa, L234A L235A, V domains shown)
VH: B1 VH with N33I, N55S, D57A
VL: B1 VL with K31N, S51T, V94L
With B4, the Kd in [1] amounted to 0.0149 µg/mL; in assay [2], 3.8 nM; in [3], 0.099 nM; in assay [4], 2.31 nM; in assay [5], 1.61 nM.

B5: AV-21 antibody (antibody, human IgG1, kappa, L234A L235A, V domains shown)
VH: B1 VH with Y32Q, N33I, Y52S, G56S, D57G
VL: B1 VL with K31N, S51T, V94L
Take B5: the Kd in assay [1] is 0.0125 µg/mL; in assay [2], 3.5 nM; in [3], 0.083 nM; in [4], 2.08 nM; in assay [5], 1.5 nM.
